# Residue numbers refer to the chain shown, from its start.
# B1: PS3B917 (bispecific antibody, human IgG1, lambda, L234A L235A)
# heavy 1: QVQLQQSGPRLVRPSQTLSLTCAISGDSVFNNNAAWSWIRQSPSRGLEWLGRTYYRSKWLYDYAVSVKSRITVNPDTSRNQFTLQLNSVTPEDTALYYCARGYSSSFDYWGQGTLVTVSSASTKGPSVFPLAPSSKSTSGGTAALGCLVKDYFPEPVTVSWNSGALTSGVHTFPAVLQSSGLYSLSSVVTVPSSSLGTQTYICNVNHKPSNTKVDKKVEPKSCDKTHTCPPCPAPEAAGGPSVFLFPPKPKDTLMISRTPEVTCVVVSVSHEDPEVKFNWYVDGVEVHNAKTKPREEQYNSTYRVVSVLTVLHQDWLNGKEYKCKVSNKALPAPIEKTISKAKGQPREPQVYTLPPSREEMTKNQVSLTCLVKGFYPSDIAVEWESNGQPENNYKTTPPVLDSDGSFLLYSKLTVDKSRWQQGNVFSCSVMHEALHNHYTQKSLSLSPG
# light 1: QSALTQPASVSGSPGQSITISCTGTSSNIGTYKFVSWYQQHPDKAPKVLLYEVSKRPSGVSSRFSGSKSGNTASLTISGLQAEDQADYHCVSYAGSGTLLFGGGTKLTVLGQPKAAPSVTLFPPSSEELQANKATLVCLISDFYPGAVTVAWKADSSPVKAGVETTTPSKQSNNKYAASSYLSLTPEQWKSHRSYSCQVTHEGSTVEKTVAPTECS
# heavy 2: EVQLVESGGGLVKPGGSLRLSCAASGFTFSRYNMNWVRQAPGKGLEWVSSINSNSRYIYYADSVKGRFTISRDSAKNSLYLQMNSLRAEDTAVYYCAKTMGDYYYYYGMDVWGQGTTVTVSSASTKGPSVFPLAPSSKSTSGGTAALGCLVKDYFPEPVTVSWNSGALTSGVHTFPAVLQSSGLYSLSSVVTVPSSSLGTQTYICNVNHKPSNTKVDKKVEPKSCDKTHTCPPCPAPEAAGGPSVFLFPPKPKDTLMISRTPEVTCVVVSVSHEDPEVKFNWYVDGVEVHNAKTKPREEQYNSTYRVVSVLTVLHQDWLNGKEYKCKVSNKALPAPIEKTISKAKGQPREPQVYTLPPSREEMTKNQVSLTCLVKGFYPSDIAVEWESNGQPENNYKTTPPVLDSDGSFFLYSRLTVDKSRWQQGNVFSCSVMHEALHNHYTQKSLSLSPG
# light 2: QSVLTQPPSVSGAPGQRVTISCTGSSFNLGAGYDVHWYQQVPGTVPKLLIYDNSNRPSGVPDRFSGSKSGTSASLAITGLQAEDETVYYCQSYDSSLSGVVFGGGTKLTVLGQPKAAPSVTLFPPSSEELQANKATLVCLISDFYPGAVTVAWKADSSPVKAGVETTTPSKQSNNKYAASSYLSLTPEQWKSHRSYSCQVTHEGSTVEKTVAPTECS
# B2: PS3B1357 (bispecific antibody, human IgG1, lambda, L234A L235A)
# heavy 1: QVQLQQSGPGLVKPSQTLSLTCAISGDSVFNNNAAWSWIRQSPSRGLEWLGRTYYRSKWLYDYAVSVKSRITINPDTSKNQFSLQLNSVTPEDTAVYYCARGYSSSFDYWGQGTLVTVSSASTKGPSVFPLAPSSKSTSGGTAALGCLVKDYFPEPVTVSWNSGALTSGVHTFPAVLQSSGLYSLSSVVTVPSSSLGTQTYICNVNHKPSNTKVDKKVEPKSCDKTHTCPPCPAPEAAGGPSVFLFPPKPKDTLMISRTPEVTCVVVSVSHEDPEVKFNWYVDGVEVHNAKTKPREEQYNSTYRVVSVLTVLHQDWLNGKEYKCKVSNKALPAPIEKTISKAKGQPREPQVYTLPPSREEMTKNQVSLTCLVKGFYPSDIAVEWESNGQPENNYKTTPPVLDSDGSFLLYSKLTVDKSRWQQGNVFSCSVMHEALHNHYTQKSLSLSPGK
# light 1: B1 light 1 with D43G, L49M, L50I, S62N, Q85E, H89Y
# heavy 2: EVQLVESGGGLVQPGGSLRLSCAASGFTFSSYAMSWVRQAPGKGLEWVSAISGGIGSTYYADSVKGRFTISRDNSKNTLWLQMNSLRAEDTAVYYCAKDGVGATPYYFDYWGQGTLVTVSSASTKGPSVFPLAPSSKSTSGGTAALGCLVKDYFPEPVTVSWNSGALTSGVHTFPAVLQSSGLYSLSSVVTVPSSSLGTQTYICNVNHKPSNTKVDKKVEPKSCDKTHTCPPCPAPEAAGGPSVFLFPPKPKDTLMISRTPEVTCVVVSVSHEDPEVKFNWYVDGVEVHNAKTKPREEQYNSTYRVVSVLTVLHQDWLNGKEYKCKVSNKALPAPIEKTISKAKGQPREPQVYTLPPSREEMTKNQVSLTCLVKGFYPSDIAVEWESNGQPENNYKTTPPVLDSDGSFFLYSRLTVDKSRWQQGNVFSCSVMHEALHNHYTQKSLSLSPGK
# light 2: QSVLTQPPSVSAAPGQKVTISCSGSSSNIGINYVSWYQQLPGTAPKLLIYDNNKRPSGIPDRFSGSKSGTSATLGITGLQTGDEADYYCGTWDSSLSAVVFGGGTKLTVLGQPKAAPSVTLFPPSSEELQANKATLVCLISDFYPGAVTVAWKADSSPVKAGVETTTPSKQSNNKYAASSYLSLTPEQWKSHRSYSCQVTHEGSTVEKTVAPTECS
# B3: PS3B1356 (bispecific antibody, human IgG1, lambda, L234A L235A)
# heavy 1: B2 heavy 1
# light 1: B1 light 1 with D43G, L49M, L50I, S62N, Q85E, H89Y
# heavy 2: B2 heavy 2
# light 2: B2 light 2 with I31N, V99Y, G103T, L107V
# B4: PS3B1352 (bispecific antibody, human IgG1, lambda, L234A L235A)
# heavy 1: B2 heavy 1 with G10R, K13R, I73V, K79R, S83T, V96L
# light 1: B1 light 1
# heavy 2: B2 heavy 2
# light 2: B2 light 2 with I31N, V99Y, G103T, L107V
# B5: PS3B1353 (bispecific antibody, human IgG1, lambda, L234A L235A)
# heavy 1: B2 heavy 1 with G10R, K13R, I73V, K79R, S83T, V96L
# light 1: B1 light 1
# heavy 2: B2 heavy 2
# light 2: B2 light 2
# B6: PS3B1358 (bispecific antibody, human IgG1, lambda, L234A L235A)
# heavy 1: B2 heavy 1
# light 1: B1 light 1 with D43G, L49M, L50I, S62N, Q85E, H89Y
# heavy 2: B2 heavy 2 with I55S, W80Y, T91S
# light 2: B2 light 2
# Biological target: Human CD3 on T cells / Jurkat cells (human, UniProt P07766 23-207)
# Test: cell-based or functional assay
# Chain of Human CD3 on T cells / Jurkat cells (P07766 23-207 limits assumed): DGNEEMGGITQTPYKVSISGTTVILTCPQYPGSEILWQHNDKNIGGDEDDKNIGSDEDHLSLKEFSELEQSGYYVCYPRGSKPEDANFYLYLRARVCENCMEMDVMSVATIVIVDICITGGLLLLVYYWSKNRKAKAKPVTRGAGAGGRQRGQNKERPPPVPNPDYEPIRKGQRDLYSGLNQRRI
row,Binder,"T cell activation EC50 [M] (CD25+ T cells, C4-2B co-culture, 72 h)"
1,B1,4.48e-12

# Biological target: T1, Human PSMA on prostate cancer cell lines (C4-2B, 22RV1) (human, UniProt Q04609 1-750)
# Test: cell-based or functional assay
# T1 sequence (Q04609 whole entry): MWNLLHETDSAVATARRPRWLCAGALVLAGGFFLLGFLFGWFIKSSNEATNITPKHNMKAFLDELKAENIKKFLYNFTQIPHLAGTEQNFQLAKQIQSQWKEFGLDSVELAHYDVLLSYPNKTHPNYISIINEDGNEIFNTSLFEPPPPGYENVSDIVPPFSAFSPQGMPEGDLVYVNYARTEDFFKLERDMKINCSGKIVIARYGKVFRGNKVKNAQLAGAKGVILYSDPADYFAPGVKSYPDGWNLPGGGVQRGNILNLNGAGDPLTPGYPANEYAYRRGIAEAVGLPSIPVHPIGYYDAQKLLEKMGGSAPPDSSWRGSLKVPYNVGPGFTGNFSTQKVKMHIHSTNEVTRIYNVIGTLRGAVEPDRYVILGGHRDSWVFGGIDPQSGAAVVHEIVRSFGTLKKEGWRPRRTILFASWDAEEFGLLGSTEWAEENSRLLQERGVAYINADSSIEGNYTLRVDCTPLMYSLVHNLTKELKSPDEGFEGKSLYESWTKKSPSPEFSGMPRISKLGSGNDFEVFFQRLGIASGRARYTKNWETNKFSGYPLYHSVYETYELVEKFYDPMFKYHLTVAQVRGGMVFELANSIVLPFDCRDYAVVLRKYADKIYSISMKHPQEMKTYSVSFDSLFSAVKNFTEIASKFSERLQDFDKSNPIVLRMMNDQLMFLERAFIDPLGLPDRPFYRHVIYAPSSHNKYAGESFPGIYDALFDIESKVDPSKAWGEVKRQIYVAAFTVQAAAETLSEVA
Binder,"% cytolysis at 120 hours (C4-2B, xCelligence, donor #1) at 80 pM [%]","% cytolysis at 120 hours (C4-2B, xCelligence, donor #1) at 0.4 nM [%]","% cytolysis at 120 hours (C4-2B, xCelligence, donor #1) at 2 nM [%]","% cytolysis at 120 hours (C4-2B, xCelligence, donor #1) at 10 nM [%]","% cytolysis at 120 hours (C4-2B, xCelligence, donor #1) at 50 nM [%]","% cytolysis at 120 hours (C4-2B, xCelligence, donor #2) at 80 pM [%]","% cytolysis at 120 hours (C4-2B, xCelligence, donor #2) at 0.4 nM [%]","% cytolysis at 120 hours (C4-2B, xCelligence, donor #2) at 2 nM [%]","% cytolysis at 120 hours (C4-2B, xCelligence, donor #2) at 10 nM [%]","% cytolysis at 120 hours (C4-2B, xCelligence, donor #2) at 50 nM [%]"
B2,100,100,100,100,100,100,100,100,100,100
B3,0,100,100,100,100,0,24,100,100,100
B4,77,100,100,100,100,0,100,100,100,100
B5,100,100,100,100,100,100,100,100,100,100

# Same assay, conditions: not given
Binder,"% cytolysis at 120 hours (C4-2B, xCelligence, donor #3) at 80 pM [%]","% cytolysis at 120 hours (C4-2B, xCelligence, donor #3) at 0.4 nM [%]","% cytolysis at 120 hours (C4-2B, xCelligence, donor #3) at 2 nM [%]","% cytolysis at 120 hours (C4-2B, xCelligence, donor #3) at 10 nM [%]","% cytolysis at 120 hours (C4-2B, xCelligence, donor #3) at 50 nM [%]"
B2,100,100,100,100,100
B3,0,100,100,100,100
B4,9,100,100,100,100
B5,100,100,100,100,100

# Biological target: T1, Human PSMA on prostate cancer cell …
# Test: cell-based or functional assay
# Remark: another data set of the same source
Binder,"Cytotoxicity (C4-2B cells, 3:1 E:T ratio, 5 Day) at 0.3 nM [%]","Cytotoxicity (C4-2B cells, 3:1 E:T ratio, 5 Day) at 1.1 nM [%]","Cytotoxicity (C4-2B cells, 3:1 E:T ratio, 5 Day) at 3.3 nM [%]","Cytotoxicity (C4-2B cells, 3:1 E:T ratio, 5 Day) at 10 nM [%]","Cytotoxicity (C4-2B cells, 3:1 E:T ratio, 5 Day) at 30 nM [%]"
B2,96,96,95,96,91
B6,68,90,93,94,88
B3,–,55,80,83,88
B4,65,88,89,85,79
B5,98,98,97,95,92

# Reference: patent US20240059789A1 (Janssen / Centocor, published 2024)
